The assay has as its target T1, 14-3-3 proteins, P29311.
T1 chain: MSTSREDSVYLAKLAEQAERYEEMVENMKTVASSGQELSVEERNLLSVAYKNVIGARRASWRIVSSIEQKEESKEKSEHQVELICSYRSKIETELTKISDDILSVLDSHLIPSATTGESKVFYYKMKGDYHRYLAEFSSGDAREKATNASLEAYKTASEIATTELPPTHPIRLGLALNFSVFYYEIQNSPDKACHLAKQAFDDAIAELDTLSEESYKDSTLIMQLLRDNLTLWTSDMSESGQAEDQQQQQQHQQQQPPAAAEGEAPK
The experiment in a line: co-immunoprecipitation (anti-FLAG IP, immunoblot quantification). The following applies: chain shown with the change; n = 3; reg1Δ Snf1-GFP Glc7-GFP cells; parent: est. 1.0; read off a plot.

B1: Reg1-FLAG (wild type), Q00816 P278Q (protein)
chain: MSTNLANYFAGKKDIENEHVNRNASHESNSKSDVKISGNDNDNDEDMGPSVSMAVQAKNDDDFHKSTFNLKRTRSMGLLDEYIDPTKKLLGRSDDLYDNDNEYYDNSSNNSSSNSSDDDYDDGYQEHSTSVSPPPADNDSYLIPQDDNDVVVEPERHVDYLSHEWKESEISNSWKYIILKKKKRDVDLVNAARLENASWRTWAKARNNLKTVSPEVVNWSKDSDVTWLYGPIVRDSEGNAQSEEEHDLERGYGSDDENSKRISMPTKNSKSIAAAPKQILKKRTVTEIIEDNALWKLNEARKHMTEMKHASVIMDPNGNKNVHDDFDALAAQVNAQYYHYPKESNSSVSLKSQHSDKKDNSTIPNPVGENSNGGGDKGEEDLHLKSALHVQNNRSTAQSNKSILENSTNDRKANLDQNLNSPDNNRFPSSTSSSNRDNENNSMGLSSILTSNPSEKSNKPTKNRHIHFNDRVEQCMALRYPASQSEDDESDDENKQYVDVNNNANVTTINNNRTPLLAIQHKSIPINSATEHLNKNTSDDDTSSQSSSSSHSDDEEHGGLYINARFSRRSDSGVHSPITDNSSVASSTTSRAHVRPIIKLLPDTTLNYGSDEESDNGEFNGYGNAVSHNVNTSRGYDYIYDYNSVYTGDTSSFLPVDSCDIVDVPEGMDLQTAIADDNASNYEFNNAVESKEKHVPQLHKASANNTTRQHGSHMLLYDDDNYSSSSDSEQQFIEDSQYNSSDDEEEEDDDDQEVDDNHDEGLSLRRTLSLGKSGSTNSLYDLAQPSLSSATPQQKNPTNFTGGKTDVDKDAQLAVRPYPLKRNSSSGNFIFNSDSEEESSSEEEQRPLPANSQLVNRSVLKGSVTPANISSQKKKALPKQPKASDSSQSFRIVNNTPSPAEVGASDVAIEGYFSPRNESIKSVVSGGNMMDHQDHSEMDTLAKGFENCHINNASKLKDKKVDSVQTTRKEASLTDSSNESLHKVVQNARGMASKYLHSWKKSDVKPQENGNDSS
Regarding B1, the ratio to parent worked out at 1.2.

B2: Reg1-FLAG (wild type), Q00816 W165G (protein)
chain: MSTNLANYFAGKKDIENEHVNRNASHESNSKSDVKISGNDNDNDEDMGPSVSMAVQAKNDDDFHKSTFNLKRTRSMGLLDEYIDPTKKLLGRSDDLYDNDNEYYDNSSNNSSSNSSDDDYDDGYQEHSTSVSPPPADNDSYLIPQDDNDVVVEPERHVDYLSHEGKESEISNSWKYIILKKKKRDVDLVNAARLENASWRTWAKARNNLKTVSPEVVNWSKDSDVTWLYGPIVRDSEGNAQSEEEHDLERGYGSDDENSKRISMPTKNSKSIAAAPKPILKKRTVTEIIEDNALWKLNEARKHMTEMKHASVIMDPNGNKNVHDDFDALAAQVNAQYYHYPKESNSSVSLKSQHSDKKDNSTIPNPVGENSNGGGDKGEEDLHLKSALHVQNNRSTAQSNKSILENSTNDRKANLDQNLNSPDNNRFPSSTSSSNRDNENNSMGLSSILTSNPSEKSNKPTKNRHIHFNDRVEQCMALRYPASQSEDDESDDENKQYVDVNNNANVTTINNNRTPLLAIQHKSIPINSATEHLNKNTSDDDTSSQSSSSSHSDDEEHGGLYINARFSRRSDSGVHSPITDNSSVASSTTSRAHVRPIIKLLPDTTLNYGSDEESDNGEFNGYGNAVSHNVNTSRGYDYIYDYNSVYTGDTSSFLPVDSCDIVDVPEGMDLQTAIADDNASNYEFNNAVESKEKHVPQLHKASANNTTRQHGSHMLLYDDDNYSSSSDSEQQFIEDSQYNSSDDEEEEDDDDQEVDDNHDEGLSLRRTLSLGKSGSTNSLYDLAQPSLSSATPQQKNPTNFTGGKTDVDKDAQLAVRPYPLKRNSSSGNFIFNSDSEEESSSEEEQRPLPANSQLVNRSVLKGSVTPANISSQKKKALPKQPKASDSSQSFRIVNNTPSPAEVGASDVAIEGYFSPRNESIKSVVSGGNMMDHQDHSEMDTLAKGFENCHINNASKLKDKKVDSVQTTRKEASLTDSSNESLHKVVQNARGMASKYLHSWKKSDVKPQENGNDSS
With B2, the ratio to parent stood at 1.1.

B3: Reg1-FLAG (wild type), Q00816 A54T (protein)
chain: MSTNLANYFAGKKDIENEHVNRNASHESNSKSDVKISGNDNDNDEDMGPSVSMTVQAKNDDDFHKSTFNLKRTRSMGLLDEYIDPTKKLLGRSDDLYDNDNEYYDNSSNNSSSNSSDDDYDDGYQEHSTSVSPPPADNDSYLIPQDDNDVVVEPERHVDYLSHEWKESEISNSWKYIILKKKKRDVDLVNAARLENASWRTWAKARNNLKTVSPEVVNWSKDSDVTWLYGPIVRDSEGNAQSEEEHDLERGYGSDDENSKRISMPTKNSKSIAAAPKPILKKRTVTEIIEDNALWKLNEARKHMTEMKHASVIMDPNGNKNVHDDFDALAAQVNAQYYHYPKESNSSVSLKSQHSDKKDNSTIPNPVGENSNGGGDKGEEDLHLKSALHVQNNRSTAQSNKSILENSTNDRKANLDQNLNSPDNNRFPSSTSSSNRDNENNSMGLSSILTSNPSEKSNKPTKNRHIHFNDRVEQCMALRYPASQSEDDESDDENKQYVDVNNNANVTTINNNRTPLLAIQHKSIPINSATEHLNKNTSDDDTSSQSSSSSHSDDEEHGGLYINARFSRRSDSGVHSPITDNSSVASSTTSRAHVRPIIKLLPDTTLNYGSDEESDNGEFNGYGNAVSHNVNTSRGYDYIYDYNSVYTGDTSSFLPVDSCDIVDVPEGMDLQTAIADDNASNYEFNNAVESKEKHVPQLHKASANNTTRQHGSHMLLYDDDNYSSSSDSEQQFIEDSQYNSSDDEEEEDDDDQEVDDNHDEGLSLRRTLSLGKSGSTNSLYDLAQPSLSSATPQQKNPTNFTGGKTDVDKDAQLAVRPYPLKRNSSSGNFIFNSDSEEESSSEEEQRPLPANSQLVNRSVLKGSVTPANISSQKKKALPKQPKASDSSQSFRIVNNTPSPAEVGASDVAIEGYFSPRNESIKSVVSGGNMMDHQDHSEMDTLAKGFENCHINNASKLKDKKVDSVQTTRKEASLTDSSNESLHKVVQNARGMASKYLHSWKKSDVKPQENGNDSS
In the case of B3, the ratio to parent worked out at 1.2.

B4: Reg1-FLAG (wild type), Q00816 N624S (protein)
chain: MSTNLANYFAGKKDIENEHVNRNASHESNSKSDVKISGNDNDNDEDMGPSVSMAVQAKNDDDFHKSTFNLKRTRSMGLLDEYIDPTKKLLGRSDDLYDNDNEYYDNSSNNSSSNSSDDDYDDGYQEHSTSVSPPPADNDSYLIPQDDNDVVVEPERHVDYLSHEWKESEISNSWKYIILKKKKRDVDLVNAARLENASWRTWAKARNNLKTVSPEVVNWSKDSDVTWLYGPIVRDSEGNAQSEEEHDLERGYGSDDENSKRISMPTKNSKSIAAAPKPILKKRTVTEIIEDNALWKLNEARKHMTEMKHASVIMDPNGNKNVHDDFDALAAQVNAQYYHYPKESNSSVSLKSQHSDKKDNSTIPNPVGENSNGGGDKGEEDLHLKSALHVQNNRSTAQSNKSILENSTNDRKANLDQNLNSPDNNRFPSSTSSSNRDNENNSMGLSSILTSNPSEKSNKPTKNRHIHFNDRVEQCMALRYPASQSEDDESDDENKQYVDVNNNANVTTINNNRTPLLAIQHKSIPINSATEHLNKNTSDDDTSSQSSSSSHSDDEEHGGLYINARFSRRSDSGVHSPITDNSSVASSTTSRAHVRPIIKLLPDTTLNYGSDEESDNGEFNGYGSAVSHNVNTSRGYDYIYDYNSVYTGDTSSFLPVDSCDIVDVPEGMDLQTAIADDNASNYEFNNAVESKEKHVPQLHKASANNTTRQHGSHMLLYDDDNYSSSSDSEQQFIEDSQYNSSDDEEEEDDDDQEVDDNHDEGLSLRRTLSLGKSGSTNSLYDLAQPSLSSATPQQKNPTNFTGGKTDVDKDAQLAVRPYPLKRNSSSGNFIFNSDSEEESSSEEEQRPLPANSQLVNRSVLKGSVTPANISSQKKKALPKQPKASDSSQSFRIVNNTPSPAEVGASDVAIEGYFSPRNESIKSVVSGGNMMDHQDHSEMDTLAKGFENCHINNASKLKDKKVDSVQTTRKEASLTDSSNESLHKVVQNARGMASKYLHSWKKSDVKPQENGNDSS
Take B4: the ratio to parent was determined as 1.4.

B5: Reg1-FLAG (wild type), Q00816 P231S (protein)
chain: MSTNLANYFAGKKDIENEHVNRNASHESNSKSDVKISGNDNDNDEDMGPSVSMAVQAKNDDDFHKSTFNLKRTRSMGLLDEYIDPTKKLLGRSDDLYDNDNEYYDNSSNNSSSNSSDDDYDDGYQEHSTSVSPPPADNDSYLIPQDDNDVVVEPERHVDYLSHEWKESEISNSWKYIILKKKKRDVDLVNAARLENASWRTWAKARNNLKTVSPEVVNWSKDSDVTWLYGSIVRDSEGNAQSEEEHDLERGYGSDDENSKRISMPTKNSKSIAAAPKPILKKRTVTEIIEDNALWKLNEARKHMTEMKHASVIMDPNGNKNVHDDFDALAAQVNAQYYHYPKESNSSVSLKSQHSDKKDNSTIPNPVGENSNGGGDKGEEDLHLKSALHVQNNRSTAQSNKSILENSTNDRKANLDQNLNSPDNNRFPSSTSSSNRDNENNSMGLSSILTSNPSEKSNKPTKNRHIHFNDRVEQCMALRYPASQSEDDESDDENKQYVDVNNNANVTTINNNRTPLLAIQHKSIPINSATEHLNKNTSDDDTSSQSSSSSHSDDEEHGGLYINARFSRRSDSGVHSPITDNSSVASSTTSRAHVRPIIKLLPDTTLNYGSDEESDNGEFNGYGNAVSHNVNTSRGYDYIYDYNSVYTGDTSSFLPVDSCDIVDVPEGMDLQTAIADDNASNYEFNNAVESKEKHVPQLHKASANNTTRQHGSHMLLYDDDNYSSSSDSEQQFIEDSQYNSSDDEEEEDDDDQEVDDNHDEGLSLRRTLSLGKSGSTNSLYDLAQPSLSSATPQQKNPTNFTGGKTDVDKDAQLAVRPYPLKRNSSSGNFIFNSDSEEESSSEEEQRPLPANSQLVNRSVLKGSVTPANISSQKKKALPKQPKASDSSQSFRIVNNTPSPAEVGASDVAIEGYFSPRNESIKSVVSGGNMMDHQDHSEMDTLAKGFENCHINNASKLKDKKVDSVQTTRKEASLTDSSNESLHKVVQNARGMASKYLHSWKKSDVKPQENGNDSS
Turning to B5, the ratio to parent amounted to 1.2.
